For this assay, the target named is T1, GPR110 F663S mutant (C-terminal HA tag) (human, UniProt Q5T601-1 20-910, F663S).
T1 sequence (looked up): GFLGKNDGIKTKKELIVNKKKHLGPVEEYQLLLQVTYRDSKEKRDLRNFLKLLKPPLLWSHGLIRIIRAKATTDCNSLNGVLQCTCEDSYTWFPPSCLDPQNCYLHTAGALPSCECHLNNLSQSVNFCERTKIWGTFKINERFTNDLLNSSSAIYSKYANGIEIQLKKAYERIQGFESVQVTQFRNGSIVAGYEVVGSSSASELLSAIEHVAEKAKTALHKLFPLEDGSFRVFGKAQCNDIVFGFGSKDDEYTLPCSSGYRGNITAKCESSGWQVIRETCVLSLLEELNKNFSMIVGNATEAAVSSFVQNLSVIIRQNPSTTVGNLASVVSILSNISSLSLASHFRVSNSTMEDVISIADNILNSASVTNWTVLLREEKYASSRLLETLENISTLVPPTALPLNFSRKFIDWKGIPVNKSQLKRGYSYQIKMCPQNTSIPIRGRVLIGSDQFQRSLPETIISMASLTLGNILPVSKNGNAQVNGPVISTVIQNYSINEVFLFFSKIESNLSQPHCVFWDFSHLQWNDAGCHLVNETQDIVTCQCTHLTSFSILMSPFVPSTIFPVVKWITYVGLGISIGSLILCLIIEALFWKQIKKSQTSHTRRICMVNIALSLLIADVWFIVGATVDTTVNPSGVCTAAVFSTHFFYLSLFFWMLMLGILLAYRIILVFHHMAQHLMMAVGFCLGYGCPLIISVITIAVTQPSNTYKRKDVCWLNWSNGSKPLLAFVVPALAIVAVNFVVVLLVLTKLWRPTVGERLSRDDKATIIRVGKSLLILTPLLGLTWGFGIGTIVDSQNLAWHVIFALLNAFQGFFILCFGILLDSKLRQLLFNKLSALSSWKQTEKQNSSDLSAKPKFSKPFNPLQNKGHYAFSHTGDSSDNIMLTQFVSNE
Nature of the assay: cross-linking + affinity purification with mass spectrometry.

B1: occludin (tight junction protein) (natural protein, human (endogenous in HEK293), UniProt Q16625 1-522, looked up)
chain: MSSRPLESPPPYRPDEFKPNHYAPSNDIYGGEMHVRPMLSQPAYSFYPEDEILHFYKWTSPPGVIRILSMLIIVMCIAIFACVASTLAWDRGYGTSLLGGSVGYPYGGSGFGSYGSGYGYGYGYGYGYGGYTDPRAAKGFMLAMAAFCFIAALVIFVTSVIRSEMSRTRRYYLSVIIVSAILGIMVFIATIVYIMGVNPTAQSSGSLYGSQIYALCNQFYTPAATGLYVDQYLYHYCVVDPQEAIAIVLGFMIIVAFALIIFFAVKTRRKMDRYDKSNILWDKEHIYDEQPPNVEEWVKNVSAGTQDVPSPPSDYVERVDSPMAYSSNGKVNDKRFYPESSYKSTPVPEVVQELPLTSPVDDFRQPRYSSGGNFETPSKRAPAKGRAGRSKRTEQDHYETDYTTGGESCDELEEDWIREYPPITSDQQRQLYKRNFDTGLQEYKSLQSELDEINKELSRLDKELDDYREESEEYMAAADEYNRLKQVKGSADYKSKKNHCKQLKSKLSHIKKMVGDYDRQKT
As for B1, the “fold less than with WT GPR110 (label-free MS quantitation)” value was 5 fold.

The values above are taken from paper PMC10139975 (iScience, 2023).
